From patent publication CN113354737A (GUANGZHOU EXCELMAB BIOMEDICAL TECH CO LTD, dated 2021)
Read-outs that look alike come from different tables or passages of the source. Blank lines part the entries; values can stand above or below the molecule they belong to.

Key:
Assay in all cases: ELISA, coated antigen, HRP anti-human IgG
[1] = molecular target: T1, 重组人GPC3近膜端抗原 (human, UniProt P51654 524-563)
T1 construct: range 524-563
T1 chain (looked up): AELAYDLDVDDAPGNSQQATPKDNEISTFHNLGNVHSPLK

[2] = molecular target: T1, 重组人GPC3近膜端抗原
[3] = molecular target: T1, 重组人GPC3近膜端抗原
[4] = molecular target: T2, 重组人GPC3胞外区抗原 (human, UniProt P51654 25-559, limits assumed)
T2 construct: extracellular domain
T2 sequence (P51654 25-559 limits assumed): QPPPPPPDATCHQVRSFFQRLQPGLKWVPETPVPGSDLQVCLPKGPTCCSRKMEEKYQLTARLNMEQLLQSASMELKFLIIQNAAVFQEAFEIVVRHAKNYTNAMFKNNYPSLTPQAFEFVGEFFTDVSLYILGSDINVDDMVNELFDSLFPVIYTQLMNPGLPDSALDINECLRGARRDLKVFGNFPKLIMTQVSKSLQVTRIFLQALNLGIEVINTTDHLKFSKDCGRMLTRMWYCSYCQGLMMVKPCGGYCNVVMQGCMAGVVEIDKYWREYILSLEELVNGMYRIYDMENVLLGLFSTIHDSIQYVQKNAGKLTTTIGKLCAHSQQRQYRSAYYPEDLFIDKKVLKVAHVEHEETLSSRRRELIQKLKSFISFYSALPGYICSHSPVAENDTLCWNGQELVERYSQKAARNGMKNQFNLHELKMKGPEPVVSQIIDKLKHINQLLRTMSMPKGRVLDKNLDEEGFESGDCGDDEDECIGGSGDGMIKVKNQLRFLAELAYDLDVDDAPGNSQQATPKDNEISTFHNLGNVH

Molecule: GC33单抗模拟物 (antibody)
EC50 [1]: 0.063 µg/mL

B1: 亲和力成熟变体5E11 (antibody, V domains shown)
VH: QVQLKQSGAELMKPGASVKISCKATGYTFSRYWIEWVKQRPGHGLEWIGEILPGSGSTSYNEKFKGKATFTADTSSNTAYMQLSSLTSEDSAVYYCARSARATYYFDYWGQGTTLTVSS
VL: DIQMTQTTSSLSASLGDRVTISCWASQDISNYLNWYQQKPDGTVKLLIYYTSTLHSGVPSRFSGSGSGTDYSLTISNLEQEDIATYFCQQGNALPYTFGGGTKLEIK
EC50 [2]: 0.12 µg/mL

B4: 亲和力成熟变体5A5 (antibody, V domains shown)
VH: QVQLQQSGTELVRPGASVKLSCKALGYTFTDYEMHWVKQTPVHGLEWIGAIHPGSGDTAYNQRFKGKATLTADKSSSTAYMEYSSLTSEDSAVYYCTRFYSYAYWGQGTLVTVSA
VL: DVVMTQTPLSLPVSLGDQASISCRSSQSLVHSNGNTYLQWYLQKPGQSPKLLIYKVSNRFSGVPDRFSGRGSGTDFTLKISRVEAEDLGVYFCSQSIYVPYTFGGGTKLEIK
EC50 [2]: 0.0951 µg/mL

Now from value to molecule:

EC50 [3]: 0.0279 µg/mL
EC50 [4]: 0.0836 µg/mL
EC50 [2]: 0.141 µg/mL
B2: 人源GPC3抗体10C7 (antibody, V domains shown)
VH: QVQLVQSGAEVKKPGASVKLSCKASGYTFTDYEMHWVKQTPGKGLKWIGALDPKTGDTAYAQKFQGRATLTADTSTDTAYMELSSLRSEDSAVYYCTRFYSYTYWGQGTLVTVSS
VL: DIVLTQSPLSLTVTPGEPASISCRSSESLVHSNGNTYLSWLQQRPGQPPRLLIYKISNRFSGVPDRFSGSGAGTDFTLKISRVEAEDVGVYYCTQATQFPYTFGQGTKVEIK
notes: also called 抗人GPC3抗体10C7

EC50 [2]: 0.0428 µg/mL
B3: 亲和力成熟变体7C6 (antibody, V domains shown)
VH: QVQLQQPGAELVKPGASVKLSCKASGYTFTTYYMYWVKQRPGQGLEWIGEINPSNGGTNFNEKFKSKATLTVDKSSSTAYMQLSSLTSEDSAVYYCTTFAYWGQGTLVTVSA
VL: DIVMTQSPSSLSASLGGKVTITCKASQDINKYIVWYQHKPGKGPRLLIHYTSILQPGIPSRFSGSGSGRDYSFSISNLEPEDIATYYCLQYDNLWTFGGGTKLEIK
